Laboratory results from PMC3637437.
“And” between values parts separate entries of the source, which are not always exact repeats. Equal values may be shown once.

Tests used:
Assay in all cases: native gel or EMSA; 1 ug of each purified consensus Env gp140 on a NativePAGE native gel, silver stained
[1] = target: Con M Env gp140 trimer (HIV-1 group M consensus) (bacteriophage)
[2] = target: Consensus A Env gp140 trimer (bacteriophage)
[3] = target: Consensus B Env gp140 trimer (bacteriophage)
[4] = target: Consensus C Env gp140 trimer (bacteriophage)
[5] = target: Consensus E Env gp140 trimer (bacteriophage)

In the case of “Con M Env gp140 trimer (HIV-1 group M consensus)”, the stoichiometry N [1] was 3 and 2.
For Consensus A Env gp140 trimer, the stoichiometry N [2] was 3.
Work on Consensus B Env gp140 trimer yielded a stoichiometry N [3] of 3.
Consensus C Env gp140 trimer was tested, and the stoichiometry N [4] was 3 and 2.
With Consensus E Env gp140 trimer the stoichiometry N [5] was 3 and 2.
